From patent publication US20190085043A1, “FUSION PROTEINS FOR TREATING A METABOLIC SYNDROME” (SANOFI, priority 2012, published 2019)

Key:
human GLP-1 receptor = biological target: T1, human GLP-1 receptor (Homo sapiens, UniProt P43220); test: In vitro cellular assay for human GLP-1 receptor efficacy (cAMP HTRF, HEK-293); format: cell-based; details: HEK-293 cells stably expressing human GLP-1 receptor, read-out: hGLP-1R cAMP EC50
T1 construct: expressed in transfected cells
Experimental: The cAMP content of the cells was determined using a kit from Cisbio Corp. (cat. no. 62AM4PEC) based on HTRF (Homogenous Time Resolved Fluorescence).
The cAMP content of cells was determined using a kit from Cisbio Corp. (cat. no. 62AM4PEC) based on HTRF (Homogenous Time Resolved Fluorescence). For preparation, cells were split into T175 culture flasks and grown overnight to near confluence in medium (DMEM/10% FBS). Medium was then removed and cells washed with PBS lacking calcium and magnesium, followed by proteinase treatment with accutase (Sigma-Aldrich cat. no. A6964). Detached cells were washed and resuspended in assay buffer (1×HBSS; 20 mM HEPES, 0.1% BSA, 2 mM IBMX) and cellular density determined. They were then diluted to 4×10^5cells/mL and 25 μL-aliquots dispensed into the wells of 96-well plates. For measurement, 25 μL of test compound in assay buffer was added to the wells, followed by incubation for 30 minutes at room temperature.

human FGFR1c plus KLB = human FGFR1c plus KLB (Homo sapiens, UniProt P11362+Q86Z14); test: FGF-21 receptor autophosphorylation In-Cell Western (pFGFR ICW) in CHO cells; format: cell-based; details: CHO cells overexpressing human FGFR1c plus KLB, FGFR autophosphorylation
Sequence of human FGFR1c plus KLB (P11362 22-822): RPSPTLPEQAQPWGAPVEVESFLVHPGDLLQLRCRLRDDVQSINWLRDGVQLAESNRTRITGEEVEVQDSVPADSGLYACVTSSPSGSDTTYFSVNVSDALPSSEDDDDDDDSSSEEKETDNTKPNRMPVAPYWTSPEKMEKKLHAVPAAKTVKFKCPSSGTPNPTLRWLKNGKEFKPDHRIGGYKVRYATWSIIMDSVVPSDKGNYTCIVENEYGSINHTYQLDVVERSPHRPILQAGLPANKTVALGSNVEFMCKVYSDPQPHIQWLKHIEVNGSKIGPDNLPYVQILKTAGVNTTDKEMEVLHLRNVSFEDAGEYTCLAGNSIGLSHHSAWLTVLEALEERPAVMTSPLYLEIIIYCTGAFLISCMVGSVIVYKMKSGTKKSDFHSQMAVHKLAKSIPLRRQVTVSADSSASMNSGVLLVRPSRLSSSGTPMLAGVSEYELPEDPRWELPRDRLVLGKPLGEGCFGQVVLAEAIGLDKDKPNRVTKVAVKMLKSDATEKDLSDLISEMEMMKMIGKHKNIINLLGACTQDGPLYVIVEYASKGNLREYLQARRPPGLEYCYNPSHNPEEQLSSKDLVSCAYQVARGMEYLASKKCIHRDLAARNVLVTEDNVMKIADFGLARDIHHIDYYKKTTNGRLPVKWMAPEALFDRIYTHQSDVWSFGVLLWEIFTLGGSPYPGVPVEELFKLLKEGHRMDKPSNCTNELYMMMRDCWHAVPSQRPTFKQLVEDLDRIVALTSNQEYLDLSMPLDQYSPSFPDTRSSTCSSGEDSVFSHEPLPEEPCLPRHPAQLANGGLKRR
Sequence of human FGFR1c plus KLB (Q86Z14 whole entry): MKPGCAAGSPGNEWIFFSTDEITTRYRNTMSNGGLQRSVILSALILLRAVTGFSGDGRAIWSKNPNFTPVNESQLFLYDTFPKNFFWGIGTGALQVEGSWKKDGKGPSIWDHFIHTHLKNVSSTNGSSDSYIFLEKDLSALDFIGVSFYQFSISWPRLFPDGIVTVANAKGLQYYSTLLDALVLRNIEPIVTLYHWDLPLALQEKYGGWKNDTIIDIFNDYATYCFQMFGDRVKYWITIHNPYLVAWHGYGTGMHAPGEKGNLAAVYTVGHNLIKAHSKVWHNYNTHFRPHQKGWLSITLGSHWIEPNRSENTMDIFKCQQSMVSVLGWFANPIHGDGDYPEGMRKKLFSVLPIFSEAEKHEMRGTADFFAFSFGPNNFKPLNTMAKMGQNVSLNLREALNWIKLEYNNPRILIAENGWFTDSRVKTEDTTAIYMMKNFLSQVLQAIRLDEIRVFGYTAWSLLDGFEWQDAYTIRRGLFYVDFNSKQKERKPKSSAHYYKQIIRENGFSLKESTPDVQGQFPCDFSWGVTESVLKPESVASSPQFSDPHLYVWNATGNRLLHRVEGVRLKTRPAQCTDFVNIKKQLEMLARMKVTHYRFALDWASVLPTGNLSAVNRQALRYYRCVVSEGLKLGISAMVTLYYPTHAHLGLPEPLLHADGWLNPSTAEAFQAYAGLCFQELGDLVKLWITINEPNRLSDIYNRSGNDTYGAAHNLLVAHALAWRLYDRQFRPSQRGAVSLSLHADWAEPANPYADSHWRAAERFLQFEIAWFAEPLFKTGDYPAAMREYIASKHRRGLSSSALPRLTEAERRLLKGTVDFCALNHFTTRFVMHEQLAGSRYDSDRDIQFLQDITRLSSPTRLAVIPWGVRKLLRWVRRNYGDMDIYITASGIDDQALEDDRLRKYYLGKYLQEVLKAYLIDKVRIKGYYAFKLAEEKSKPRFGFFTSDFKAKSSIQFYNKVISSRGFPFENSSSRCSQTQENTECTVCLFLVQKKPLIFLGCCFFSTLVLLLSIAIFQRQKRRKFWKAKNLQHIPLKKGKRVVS
Experimental: FIG. 1B-1 to FIG. 1B-4) The FGF induced FGFR autophosphorylation was measured via a specific and highly sensitive In-Cell Western (ICW) in CHO cells stably overexpressing human FGFR1c together with human betaKlotho (KLB). In-Cell Western assay is an immunocytochemical assay usually performed in microplate format. Target-specific primary antibodies and infrared-labelled secondary antibodies are used to detect target proteins in fixed cells, and fluorescent signal from each well is quantified (e.g. the In-Cell Western assay from LI-COR Biosciences, USA).
The cellular efficacy of FGF-21 or FGF-21 fusion proteins was measured using a specific and highly sensitive In-Cell Western (ICW) assay. The ICW assay is an immunocytochemical assay usually performed in microplate format.
(§1) CHO Flp-In cells (Invitrogen, Darmstadt, Germany) stable expressing the human FGFR1c together with human beta-Klotho (KLB) were used for FGF-21 receptor autophosphorylation assay using In-Cell Western. In order to determine the receptor autophosphorylation level, 2×10^4 cells/well were seeded into 96-well plates and grown for 48 h. Cells were serum starved with serum-free medium Ham's F-12 Nutrient Mix with GlutaMAX (Gibco, Darmstadt, Germany) for 3-4 h. The cells were subsequently treated with increasing concentrations of either human FGF-21, the indicated FGF-21 fusion protein, or other peptides for 5 min at 37° C. After incubation the medium was discarded and the cells were fixed in 3.7% freshly prepared para-formaldehyde for 20 min. Cells were permeabilized with 0.1% Triton-X-100 in PBS for 20 min. Blocking was performed with Odyssey blocking buffer (LICOR, Bad Homburg, Germany) for 2 h at room temperature. Anti-pFGFR Tyr653/654 (New England Biolabs, Frankfurt, Germany) was incubated overnight at 4° C. After incubation of the primary antibody, cells were washed with PBS+0.1% Tween20. The secondary anti-Mouse 800CW antibody (LICOR, Bad Homburg, Germany) was incubated for 1 h at room temperature. Subsequently cells were washed again with PBS+0.1% Tween20 and infrared dye signals were quantified with an Odyssey imager (LICOR, Bad Homburg, Germany). Results were normalized by quantification of DNA with TO-PRO3 dye (Invitrogen, Karlsruhe, Germany). FIG. 1B-1 to FIG. 1B-4 show the results from an ICW with CHO cells overexpressing human FGFR1c plus KLB.

MAP kinase ERK1/2 = test: ERK1/2 phosphorylation In-Cell Western (pERK ICW) in CHO cells overexpressing human FGFR1c plus KLB; format: cell-based; details: ERK1/2 phosphorylation Thr202/Tyr204
Experimental: FIG. 1C-1 to FIG. 1C-3) Dose dependent in vitro activation of the downstream effector ERK. Activation of the downstream effector of FGF signaling, the MAP kinase ERK1/2, was determined via In-Cell Western assay in CHO cells stably overexpressing human FGFR1c and KLB using an antibody directed against the ERK1/2 phosphorylated amino acid residues threonine 202 and tyrosine 204.
as §1
To assess the activation of a downstream effector of FGFR signalling by FGF-21-GLP-1RA fusion proteins the phosphorylation of MAP kinases ERK1/2 were analysed. The same ICW protocol as described above was used, simply the primary antibody was replaced by anti-phospho-p44/42 MAPK (Erk1/2) (Thr202/Tyr204) (New England Biolabs, Frankfurt, Germany). FIG. 1C-1 to FIG. 1C-3 show the results from ICW with CHO cells overexpressing human FGFR1c plus KLB and detection of ERK1/2 phosphorylation.

ob/ob mice = test: Treatment of ob/ob mice by chronic infusion (Alzet pumps, 11 days); format: in vivo, mouse; details: for Relative body weight change (%): after 11 days of treatment
Experimental: Female ob/ob mice (B6.V-LEP OB/J, age of 9 weeks) were obtained from Charles Rivers Laboratories (Sulzfeld, Germany). Mice were randomly assigned to treatment or vehicle groups, and the randomization was stratified by body weight and fed blood glucose levels. The animals were housed in groups of 8 at 23° C. and on a 12 h light-dark cycle. All experimental procedures were conducted according to German Animal Protection Law. Mice were fed ad libitum with standard rodent chow during the drug treatment periods. Body weight and food intake was recorded every other day throughout the study.
Ob/ob mice were treated with vehicle (PBS), 0.03, 0.1, 0.3, and 1.0 mg·kg^−1·day^−1 recombinant Exenatide-IEGR-FGF-21 (SEQ ID NO: 15) via chronic infusion by Alzet pumps (type 1004) over 11 days.
At the end of the study liver weight and liver triglycerides were analysed.
Two days before pump implantation and after 11 days of treatment blood glucose was measured by tail tip bleeding under fed conditions. As shown in FIGS. 10 and 11 blood glucose levels of the chronic infused mice were decreased dose-dependently with highest effect at the dosage of 1.0 mg·kg^−1·day^−1 recombinant fusion protein.

[1] = 0.03, 0.1, 0.3 and 1 mg/kg, end of study

T1 sequence (P43220 24-463): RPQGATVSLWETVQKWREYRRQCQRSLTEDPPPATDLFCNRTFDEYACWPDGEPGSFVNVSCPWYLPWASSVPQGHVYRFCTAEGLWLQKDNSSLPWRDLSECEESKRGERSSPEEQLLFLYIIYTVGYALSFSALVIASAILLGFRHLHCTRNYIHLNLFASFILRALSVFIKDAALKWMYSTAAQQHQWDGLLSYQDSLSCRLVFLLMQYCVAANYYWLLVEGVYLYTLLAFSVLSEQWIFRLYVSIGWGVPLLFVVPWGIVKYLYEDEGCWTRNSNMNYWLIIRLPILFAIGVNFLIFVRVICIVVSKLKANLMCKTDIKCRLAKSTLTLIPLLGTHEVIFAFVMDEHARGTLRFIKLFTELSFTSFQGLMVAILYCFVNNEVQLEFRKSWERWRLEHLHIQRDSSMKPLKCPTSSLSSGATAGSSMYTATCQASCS

Substance | EC50 (human GLP-1 receptor) [nM] | EC50 (human FGFR1c plus KLB) [nM] | EC50 (MAP kinase ERK1/2) [nM] | also measured
Exenatide-APSCPAS-FGF21: fusion protein, linker based on PAS sequence plus Cystein for potential modification | 0.0132 | 193 | 10.9 | –
Exenatide-APSPAS-FGF21: fusion protein, linker based on PAS sequence | 0.003 | 4.1 | 0.27 | –
Exenatide-FGF21-GG-ABD-GG-FGF21: fusion protein, GG-ABD-GG = linker | 0.0216 | 37.3 | 4.34 | –
Exenatide-FGF21-GG-ABD: fusion protein, GG-ABD = linker (albumin binding domain) | 0.00796 | 79.8 | 89.9 | –
Exenatide-FGF21: fusion protein of exenatide and human FGF-21 His29-Ser209 without linker | 0.0041 | 1.3 | 0.51 | –
Exenatide-GG-ABD-GG-FGF21: fusion protein, GG-ABD-GG = linker | 0.0159 | – | – | –
Exenatide-GGGGS-His-GGGGS-ABD-GG-FGF21: fusion protein, GGGGS-His-GGGGS-ABD-GG = linker | 0.00254 | – | 4.97 | –
Exenatide-GGGRR-FGF21: fusion protein, GGGRR protease cleavage site linker | 0.0077 | 7.4 | 0.98 | –
Exenatide-GSGS-FGF21: fusion protein, GSGS = linker | 0.0072 | 19.1 | 0.53 | –
Exenatide-IEGQ-FGF21: fusion protein, IEGQ = linker (mutated/defect Factor Xa cleavage site) | 0.0061 | 35.4 | 0.79 | –
Exenatide-IEGR-FGF21: fusion protein exenatide - Factor Xa cleavage site IEGR linker - FGF21 | 0.004 | 1.9 | 0.4 | Relative body weight change (%) (ob/ob mice; 0.03 mg/kg, chronic infusion): +6.6%; Relative body weight change (%) (ob/ob mice; 0.1 mg/kg, chronic infusion): +1.1%; Relative body weight change (%) (ob/ob mice; 0.3 mg/kg, chronic infusion): −2.6%; Relative body weight change (%) (ob/ob mice; 1 mg/kg, chronic infusion): −17.8%; highest reduction of body weight (ob/ob mice; 1 mg/kg, chronic infusion): 17.8%; body weight (ob/ob mice; 0.03, 0.1, 0.3 and 1 mg/kg, chronic infusion): dose dependent decrease; liver triglycerides (ob/ob mice; [1]): dose dependent decrease; total liver weight (ob/ob mice; [1]): dose dependent decrease; blood glucose (ob/ob mice; 0.03, 0.1, 0.3 and 1 mg/kg, fed, after 11 days of chronic infusion): dose dependent decrease
Lixisenatide-FGF21: fusion protein of lixisenatide and FGF21 without linker | 0.0037 | 3.7 | 0.24 | –
Lixisenatide-IEGR-FGF21: fusion protein lixisenatide - Factor Xa cleavage site - FGF21 | 0.0038 | 3.1 | 1 | –
